{"source": "patent EP1506972A1", "about": "(Genentech Inc., dated 2005)", "binders": {"B1": {"name": "human IGFBP-1 (other, UniProt P08833 26-259, looked up)", "chain": "APWQCAPCSAEKLALCPPVSASCSEVTRSAGCGCCPMCALPLGAACGVATARCARGLSCRALPGEQQPLHALTRGQGACVQESDASAPHAAEAGSPESPESTEITEEELLDNFHLMAPSEEDHSILWDAISTYDGSKALHVTNIKKWKEPCRIELYRVVESLAKAQETSGEEISKFYLPNCNKNGFYHSRQCETSMDGEAGLCWCVYPWNGKRIPGSPEIRGDPNCQIYFNVQN", "notes": "Secreted recombinant protein"}}, "assay_in_all_cases": "competitive phage ELISA, soluble IGFBP-1 vs coated IGFBP-1", "key": {"[1]": {"molecular_target": "T1, IGF-I L54A (G1S-A70V background) displayed on phage (human; bacteriophage M13)", "T1 construct": "not shown: Display carrier: M13 gene III protein fragment (residues 249-406) and the junction to it", "T1 chain": "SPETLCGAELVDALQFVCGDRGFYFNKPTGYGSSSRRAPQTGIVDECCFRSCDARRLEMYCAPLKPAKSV"}, "[2]": {"molecular_target": "T2, IGF-I E3A (G1S-A70V background) displayed on phage (human; bacteriophage M13)", "T2 construct": "not shown: Display carrier: M13 gene III protein fragment (residues 249-406) and its junction to Val70"}, "[3]": {"molecular_target": "T3, IGF-I V70A (single mutant of G1S-A70V) displayed on phage (human; bacteriophage M13)", "T3 construct": "not shown: Display carrier: M13 gene III protein fragment (residues 249-406) and its junction to residue 70"}, "[4]": {"molecular_target": "T4, IGF-I D53A (G1S-A70V background) displayed on phage (human; bacteriophage M13)", "T4 construct": "not shown: Display carrier: M13 gene III protein fragment (residues 249-406) and the junction to it", "T4 chain": "T1 chain with D53A, A54L"}, "[5]": {"molecular_target": "T5, IGF-I T29A (G1S-A70V background) displayed on phage (human; bacteriophage M13)", "T5 construct": "not shown: Display carrier: M13 gene III protein fragment (residues 249-406) and the junction to it", "T5 chain": "T1 chain with T29A, A54L"}, "[6]": {"molecular_target": "T6, IGF-I G1S-A70V displayed on phage (fused to M13 gene III protein residues 249-406) (human; bacteriophage M13)", "T6 construct": "Monovalent display on M13 phagemid particles; template of the alanine scan; also called G1S-A70V IGF-I; wild-type-like IGF-I variant; not shown: Display carrier: M13 gene III protein fragment (residues 249-406) and the junction to it"}, "[7]": {"molecular_target": "T7, IGF-I L5A (G1S-A70V background) displayed on phage (human; bacteriophage M13)", "T7 construct": "not shown: The display carrier: M13 gene III protein fragment (residues 249-406) and the junction to it", "T7 chain": "T1 chain with L5A, A54L"}, "[8]": {"molecular_target": "T8, IGF-I K65A (G1S-A70V background) displayed on phage (human; bacteriophage M13)", "T8 construct": "not shown: M13 gene III fragment (residues 249-406), the display partner, and its junction to IGF-I", "T8 chain": "T1 chain with A54L, K65A"}, "[9]": {"molecular_target": "T9, IGF-I G7A (G1S-A70V background) displayed on phage (human; bacteriophage M13)", "T9 construct": "not shown: M13 gene III fragment (residues 249-406, display carrier) and the IGF-g3 junction", "T9 chain": "T1 chain with G7A, A54L"}, "[10]": {"molecular_target": "T10, IGF-I P66A (G1S-A70V background) displayed on phage (human; bacteriophage M13)", "T10 construct": "not shown: Display carrier: M13 gene III protein fragment (residues 249-406) and its junction to Val70"}, "[11]": {"molecular_target": "T11, IGF-I E46A (G1S-A70V background) displayed on phage (human; bacteriophage M13)", "T11 construct": "not shown: Display carrier: M13 gene III protein fragment (residues 249-406) and the junction to it", "T11 chain": "T1 chain with E46A, A54L"}, "[12]": {"molecular_target": "T12, IGF-I Q15A (G1S-A70V background) displayed on phage (human; bacteriophage M13)", "T12 construct": "not shown: M13 gene III fragment (residues 249-406, display carrier) and the IGF-g3 junction", "T12 chain": "T1 chain with Q15A, A54L"}, "[13]": {"molecular_target": "T13, IGF-I L57A (G1S-A70V background) displayed on phage (human; bacteriophage M13)", "T13 construct": "not shown: M13 gene III fragment (residues 249-406), the display partner, and its junction to IGF-I", "T13 chain": "T1 chain with A54L, L57A"}, "[14]": {"molecular_target": "T14, IGF-I L14A (G1S-A70V background) displayed on phage (human; bacteriophage M13)", "T14 construct": "not shown: M13 gene III fragment (residues 249-406, display carrier) and the IGF-g3 junction", "T14 chain": "T1 chain with L14A, A54L"}, "[15]": {"molecular_target": "T15, IGF-I D12A (G1S-A70V background) displayed on phage (human; bacteriophage M13)", "T15 construct": "not shown: M13 gene III fragment (residues 249-406, display carrier) and the IGF-g3 junction", "T15 chain": "T1 chain with D12A, A54L"}, "[16]": {"molecular_target": "T16, IGF-I L10A (G1S-A70V background) displayed on phage (human; bacteriophage M13)", "T16 construct": "not shown: M13 gene III fragment (residues 249-406, display carrier) and the IGF-g3 junction", "T16 chain": "T1 chain with L10A, A54L"}, "[17]": {"molecular_target": "T17, IGF-I P28A (G1S-A70V background) displayed on phage (human; bacteriophage M13)", "T17 construct": "not shown: Display carrier: M13 gene III protein fragment (residues 249-406) and the junction to it", "T17 chain": "T1 chain with P28A, A54L"}, "[18]": {"molecular_target": "T18, IGF-I P2A (G1S-A70V background) displayed on phage (human; bacteriophage M13)", "T18 construct": "range 249-406"}}, "note": "Changes are numbered by the printed parent chain."}
{"binder": "B1", "values": [{"measurement": "relative IC50 (IC50mut/IC50 G1S-A70V)", "setting": "[1]", "value": 2.8, "unit": "fold"}, {"measurement": "relative IC50 (IC50mut/IC50 G1S-A70V)", "setting": "[2]", "value": 33.9, "unit": "fold"}, {"measurement": "relative IC50 (IC50mut/IC50 G1S-A70V)", "setting": "[3]", "value": 2.3, "unit": "fold"}, {"measurement": "relative IC50 (IC50mut/IC50 G1S-A70V)", "setting": "[4]", "value": 1.9, "unit": "fold"}, {"measurement": "relative IC50 (IC50mut/IC50 G1S-A70V)", "setting": "[5]", "value": 0.9, "unit": "fold"}, {"measurement": "relative IC50 (IC50mut/IC50 G1S-A70V)", "setting": "[6]", "value": 1, "unit": "fold"}, {"measurement": "relative IC50 (IC50mut/IC50 G1S-A70V)", "setting": "[7]", "value": 6.7, "unit": "fold"}, {"measurement": "relative IC50 (IC50mut/IC50 G1S-A70V)", "setting": "[8]", "value": 1.5, "unit": "fold"}, {"measurement": "relative IC50 (IC50mut/IC50 G1S-A70V)", "setting": "[9]", "value": "> 100", "unit": "fold"}, {"measurement": "relative IC50 (IC50mut/IC50 G1S-A70V)", "setting": "[10]", "value": 1.1, "unit": "fold"}, {"measurement": "relative IC50 (IC50mut/IC50 G1S-A70V)", "setting": "[11]", "value": 1, "unit": "fold"}, {"measurement": "relative IC50 (IC50mut/IC50 G1S-A70V)", "setting": "[12]", "value": 1.7, "unit": "fold"}, {"measurement": "relative IC50 (IC50mut/IC50 G1S-A70V)", "setting": "[13]", "value": 2.7, "unit": "fold"}, {"measurement": "relative IC50 (IC50mut/IC50 G1S-A70V)", "setting": "[14]", "value": 4.5, "unit": "fold"}, {"measurement": "relative IC50 (IC50mut/IC50 G1S-A70V)", "setting": "[15]", "value": 0.5, "unit": "fold"}, {"measurement": "relative IC50 (IC50mut/IC50 G1S-A70V)", "setting": "[16]", "value": 37.9, "unit": "fold"}, {"measurement": "relative IC50 (IC50mut/IC50 G1S-A70V)", "setting": "[17]", "value": 1.1, "unit": "fold"}, {"measurement": "relative IC50 (IC50mut/IC50 G1S-A70V)", "setting": "[18]", "value": 1.3, "unit": "fold"}]}
